According to the supplement of paper PMC10567573:

B1: BTBD1 (parent)
chain: TSAEIELPDVEPAAFLALLRFLYS

Variants of: B1
Assay: protein stability index of a GFP-peptide fusion (GPS, HEK-293T) (PSI 1-6); higher = more stable
Conditions: c terminus: a fixed tail appended
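Note: lentivirally expressed fusions sorted by FACS into six bins by GFP to DsRed ratio, PSI derived from sequencing read proportions per bin multiplied by bin number.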

Variant	protein stability index
TSAEIELPDVEPAAFCALLRFLYS [L16C]	1.99
TSAEIELPDVEPAAFPALLRFLYS [L16P]	1.94
TSAEIELPDVEPAAFKALLRFLYS [L16K]	1.47
TSAEIELPDVEPAAFRALLRFLYS [L16R]	1.64
TSAEIELPDVEPAAFMALLRFLYS [L16M]	1.8
TSAEIELPDVEPAAFFALLRFLYS [L16F]	2.06
TSAEIELPDVEPAAFTALLRFLYS [L16T]	1.87
TSAEIELPDVEPAAFWALLRFLYS [L16W]	1.96
TSAEIELPDVEPAAFSALLRFLYS [L16S]	1.69
TSAEIELPDVEPAAFNALLRFLYS [L16N]	2.01
TSAEIELPDVEPAAFQALLRFLYS [L16Q]	2.31
TSAEIELPDVEPAAFHALLRFLYS [L16H]	1.74
TSAEIELPDVEPAAFDALLRFLYS [L16D]	1.88
TSAEIELPDVEPAAFEALLRFLYS [L16E]	2.06
TSAEIELPDVEPAAFGALLRFLYS [L16G]	1.64
TSAEIELPDVEPAAFIALLRFLYS [L16I]	1.62
TSAEIELPDVEPAAFVALLRFLYS [L16V]	1.81
TSAEIELPDVEPAAFAALLRFLYS [L16A]	2.19
TSAEIELPDVEPAAFYALLRFLYS [L16Y]	1.53
TSAEIELPDVEPAAFLAALRFLYS [L18A]	1.08
TSAEIELPDVEPAAFLAHLRFLYS [L18H]	2.55
TSAEIELPDVEPAAFLACLRFLYS [L18C]	1.77
TSAEIELPDVEPAAFLANLRFLYS [L18N]	1.57
TSAEIELPDVEPAAFLAVLRFLYS [L18V]	1.37

Variant	protein stability index
TSAEIELPDVEPAAFLAYLRFLYS [L18Y]	1.59
TSAEIELPDVEPAAFLAELRFLYS [L18E]	2.13
TSAEIELPDVEPAAFLASLRFLYS [L18S]	1.78
TSAEIELPDVEPAAFLAGLRFLYS [L18G]	1.86
TSAEIELPDVEPAAFLARLRFLYS [L18R]	2.03
TSAEIELPDVEPAAFLATLRFLYS [L18T]	1.77
TSAEIELPDVEPAAFLAQLRFLYS [L18Q]	1.83
TSAEIELPDVEPAAFLAILRFLYS [L18I]	2.69
TSAEIELPDVEPAAFLAPLRFLYS [L18P]	2.11
TSAEIELPDVEPAAFLAMLRFLYS [L18M]	1.72
TSAEIELPDVEPAAFLADLRFLYS [L18D]	2.64
TSAEIELPDVEPAAFLAKLRFLYS [L18K]	1.95
TSAEIELPDVEPAAFLAFLRFLYS [L18F]	1.73
TSAEIELPDVEPAAFLAWLRFLYS [L18W]	2.2
TSAEIELPDVEPCAFLALLRFLYS [A13C]	1.88
TSAEIELPDVEPKAFLALLRFLYS [A13K]	2.43
TSAEIELPDVEPWAFLALLRFLYS [A13W]	2.18
TSAEIELPDVEPDAFLALLRFLYS [A13D]	2.02
TSAEIELPDVEPVAFLALLRFLYS [A13V]	2.02
TSAEIELPDVEPNAFLALLRFLYS [A13N]	2.5
TSAEIELPDVEPYAFLALLRFLYS [A13Y]	1.59
TSAEIELPDVEPHAFLALLRFLYS [A13H]	2.16
TSAEIELPDVEPPAFLALLRFLYS [A13P]	2.05
TSAEIELPDVEPSAFLALLRFLYS [A13S]	2.01

Variant	protein stability index
TSAEIELPDVEPGAFLALLRFLYS [A13G]	1.77
TSAEIELPDVEPEAFLALLRFLYS [A13E]	1.85
TSAEIELPDVEPTAFLALLRFLYS [A13T]	2.17
TSAEIELPDVEPMAFLALLRFLYS [A13M]	2.02
TSAEIELPDVEPRAFLALLRFLYS [A13R]	1.73
TSAEIELPDVEPIAFLALLRFLYS [A13I]	1.8
TSAEIELPDVEPLAFLALLRFLYS [A13L]	1.81
TSAEIELPDVEPFAFLALLRFLYS [A13F]	1.55
TSAEIELPDVEPQAFLALLRFLYS [A13Q]	1.76
TSAEIELPDVTPAAFLALLRFLYS [E11T]	2.4
TSAEIELPDVQPAAFLALLRFLYS [E11Q]	1.56
TSAEIELPDVVPAAFLALLRFLYS [E11V]	1.52
TSAEIELPDVWPAAFLALLRFLYS [E11W]	1.69
TSAEIELPDVRPAAFLALLRFLYS [E11R]	2.11
TSAEIELPDVSPAAFLALLRFLYS [E11S]	1.73
TSAEIELPDVYPAAFLALLRFLYS [E11Y]	2.14
TSAEIELPDVEPAAFLALLEFLYS [R20E]	1.77
TSAEIELPDVEPAAFLALLWFLYS [R20W]	3.4
TSAEIELPDVEPAAFLALLTFLYS [R20T]	4.67
TSAEIELPDVEPAAFLALLVFLYS [R20V]	3.16
TSAEIELPDVEPAAFLALLMFLYS [R20M]	2.54
TSAEIELPDVEPAAFLALLPFLYS [R20P]	2.01
TSAEIELPDVEPAAFLALLLFLYS [R20L]	3.18
TSAEIELPDVEPAAFLALLFFLYS [R20F]	2

Variant	protein stability index
TSAEIELPDVEPAAFLALLGFLYS [R20G]	2.67
TSAEIELPDVEPAAFLALLQFLYS [R20Q]	2.05
TSAEIELPDVEPAAFLALLDFLYS [R20D]	1.38
TSAEIELPDVEPAAFLALLYFLYS [R20Y]	2.09
TSAEIELPDVEPAAFLALLNFLYS [R20N]	1.71
TSAEIELPDVEPAAFLALLKFLYS [R20K]	1.29
TSAEIELPDVEPAAFLALLHFLYS [R20H]	1.79
TSAEIELPDVEPAAFLALLCFLYS [R20C]	1.19
TSAEIELPDVEPAAFLALLSFLYS [R20S]	1.93
TSAEIELPDVEPAAFLALLAFLYS [R20A]	2.08
TSAEIELPDVEPAAFLELLRFLYS [A17E]	2.12
TSAEIELPDVEPAAFLILLRFLYS [A17I]	1.4
TSAEIELPDVEPAAFLHLLRFLYS [A17H]	1.67
TSAEIELPDVEPAAFLSLLRFLYS [A17S]	1.93
TSAEIELPDVEPAAFLYLLRFLYS [A17Y]	1.98
TSAEIELPDVEPAAFLNLLRFLYS [A17N]	2.06
TSAEIELPDVEPAAFLGLLRFLYS [A17G]	2.27
TSAEIELPDVEPAAFLCLLRFLYS [A17C]	1.53
TSAEIELPDVEPAAFLRLLRFLYS [A17R]	2.42
TSAEIELPDVEPAAFLMLLRFLYS [A17M]	1.62
TSAEIELPDVEPAAFLTLLRFLYS [A17T]	2.38
TSAEIELPDVEPAAFLLLLRFLYS [A17L]	2.04
TSAEIELPDVEPAAFLWLLRFLYS [A17W]	2
TSAEIELPDVEPAAFLVLLRFLYS [A17V]	1.99

Variant	protein stability index
TSAEIELPDVEPAAFLDLLRFLYS [A17D]	1.89
TSAEIELPDVEPAAFLPLLRFLYS [A17P]	1.75
TSAEIELPDVEPAAFLFLLRFLYS [A17F]	1.98
TSAEIELPDVEPAAFLQLLRFLYS [A17Q]	1.61
TSAEIELPDVEPAAFLKLLRFLYS [A17K]	1.88
TSAEIELPDVENAAFLALLRFLYS [P12N]	1.95
TSAEIELPDVEHAAFLALLRFLYS [P12H]	2.15
TSAEIELPDVEMAAFLALLRFLYS [P12M]	1.46
TSAEIELPDVECAAFLALLRFLYS [P12C]	2.3
TSAEIELPDVERAAFLALLRFLYS [P12R]	1.93
TSAEIELPDVEIAAFLALLRFLYS [P12I]	2.24
TSAEIELPDVEVAAFLALLRFLYS [P12V]	2.46
TSAEIELPDVEYAAFLALLRFLYS [P12Y]	2.22
TSAEIELPDVEAAAFLALLRFLYS [P12A]	1.29
TSAEIELPDVEKAAFLALLRFLYS [P12K]	1.61
TSAEIELPDVEDAAFLALLRFLYS [P12D]	1.47
TSAEIELPDVEEAAFLALLRFLYS [P12E]	2.08
TSAEIELPDVETAAFLALLRFLYS [P12T]	1.41
TSAEIELPDVEQAAFLALLRFLYS [P12Q]	1.19
TSAEIELPDVESAAFLALLRFLYS [P12S]	2.46
TSAEIELPDVEFAAFLALLRFLYS [P12F]	1.84
TSAEIELPDVEWAAFLALLRFLYS [P12W]	1.8
TSAEIELPDVEGAAFLALLRFLYS [P12G]	1.85
TSAEIELPDVELAAFLALLRFLYS [P12L]	1.67

Variant	protein stability index
TSAEIELPDVEPAYFLALLRFLYS [A14Y]	1.8
TSAEIELPDVEPACFLALLRFLYS [A14C]	1.84
TSAEIELPDVEPAPFLALLRFLYS [A14P]	2.05
TSAEIELPDVEPAGFLALLRFLYS [A14G]	2.04
TSAEIELPDVEPATFLALLRFLYS [A14T]	1.8
TSAEIELPDVEPALFLALLRFLYS [A14L]	1.4
TSAEIELPDVEPASFLALLRFLYS [A14S]	2.41
TSAEIELPDVEPAWFLALLRFLYS [A14W]	2.2
TSAEIELPDVEPAEFLALLRFLYS [A14E]	1.66
TSAEIELPDVEPANFLALLRFLYS [A14N]	1.92
TSAEIELPDVEPAFFLALLRFLYS [A14F]	1.91
TSAEIELPDVEPADFLALLRFLYS [A14D]	2
TSAEIELPDVEPAHFLALLRFLYS [A14H]	2.04
TSAEIELPDVEPAKFLALLRFLYS [A14K]	1.63
TSAEIELPDVEPAQFLALLRFLYS [A14Q]	1.77
TSAEIELPDVEPAMFLALLRFLYS [A14M]	1.47
TSAEIELPDVEPARFLALLRFLYS [A14R]	1.87
TSAEIELPDVEPAVFLALLRFLYS [A14V]	2.28
TSAEIELPDVEPAIFLALLRFLYS [A14I]	1.72
TSAEIELPDVEPAAFLALLRKLYS [F21K]	1.78
TSAEIELPDVEPAAFLALLRGLYS [F21G]	2.18
TSAEIELPDVEPAAFLALLRNLYS [F21N]	1.69
TSAEIELPDVEPAAFLALLRELYS [F21E]	1.82
TSAEIELPDVEPAAFLALLRMLYS [F21M]	1.94

Variant	protein stability index
TSAEIELPDVEPAAFLALLRDLYS [F21D]	1.85
TSAEIELPDVEPAAFLALLRLLYS [F21L]	2.01
TSAEIELPDVEPAAFLALLRALYS [F21A]	2.21
TSAEIELPDVEPAAFLALLRILYS [F21I]	2.25
TSAEIELPDVEPAAFLALLRCLYS [F21C]	1.4
TSAEIELPDVEPAAFLALLRHLYS [F21H]	2.14
TSAEIELPDVEPAAFLALMRFLYS [L19M]	2.05
TSAEIELPDVEPAAFLALKRFLYS [L19K]	2.07
TSAEIELPDVEPAAFLALPRFLYS [L19P]	2.11
TSAEIELPDVEPAAFLALWRFLYS [L19W]	1.98
TSAEIELPDVEPAAFLALHRFLYS [L19H]	2.05
TSAEIELPDVEPAAFLALVRFLYS [L19V]	1.72
TSAEIELPDVEPAAFLALFRFLYS [L19F]	1.58
TSAEIELPDVEPAAFLALGRFLYS [L19G]	1.89
TSAEIELPDVEPAAFLALCRFLYS [L19C]	1.94
TSAEIELPDVEPAAFLALNRFLYS [L19N]	1.77
TSAEIELPDVEPAAFLALTRFLYS [L19T]	1.76
TSAEIELPDVEPAAFLALRRFLYS [L19R]	1.84
TSAEIELPDVEPAAFLALIRFLYS [L19I]	2.37
TSAEIELPDVEPAAFLALYRFLYS [L19Y]	2.49
TSAEIELPDVEPAAFLALARFLYS [L19A]	1.9
TSAEIELPDVEPAAFLALQRFLYS [L19Q]	1.51
TSAEIELPDVEPAAFLALERFLYS [L19E]	2.31
TSAEIELPDVEPAAFLALSRFLYS [L19S]	1.69

Variant	protein stability index
TSAEIELPDVEPAAFLALDRFLYS [L19D]	3.54
TSAEIELPDVEPAAHLALLRFLYS [F15H]	1.67
TSAEIELPDVEPAAYLALLRFLYS [F15Y]	2.56
TSAEIELPDVEPAAVLALLRFLYS [F15V]	1.75
TSAEIELPDVEPAATLALLRFLYS [F15T]	1.78
TSAEIELPDVEPAAKLALLRFLYS [F15K]	1.71
TSAEIELPDVEPAAMLALLRFLYS [F15M]	1.43
TSAEIELPDVEPAARLALLRFLYS [F15R]	2.2
TSAEIELPDVEPAALLALLRFLYS [F15L]	1.31
TSAEIELPDVEPAAQLALLRFLYS [F15Q]	1.83
TSAEIELPDVEPAAPLALLRFLYS [F15P]	2.6
TSAEIELPDVEPAAELALLRFLYS [F15E]	2.31
TSAEIELPDVEPAACLALLRFLYS [F15C]	2.3
TSAEIELPDVEPAAGLALLRFLYS [F15G]	2.23
TSAEIELPDVEPAAALALLRFLYS [F15A]	1.69
TSAEIELPDVEPAAILALLRFLYS [F15I]	1.95
TSAEIELPDVEPAAWLALLRFLYS [F15W]	2.89
TSAEIELPDVEPAADLALLRFLYS [F15D]	2.73
TSAEIELPDVEPAANLALLRFLYS [F15N]	1.98
TSAEIELPDVEPAASLALLRFLYS [F15S]	2.04
